From US20230357428A1 come the findings set out here.

Test [1] deals with mix of HLA-A*02/SimPep tetramers (peptides SEQ ID NO: 51 to 59). In words: yeast display, SimPep tetramer mix, 10 nM each.
For test [2] the target is unchanged. Kind of test: yeast display, flow cytometry; 10 nM PRAME-004 monomer (x), SimPep tetramer mix 10 nM each (y).

Where “and” joins values, the source holds several entries; their conditions need not be identical. Identical values can stand only once.

B1: stabilized scTCR R11P3D3SD (TCR)
chain: ILNVEQSPQSLHVQEGDSTNFTCSFPSSNFYNLHWYRKETAKSPEFLFYMTSNGDEKKKGRISATLNTKEGYSYLYITDSQPEDSATYLCALYNNNDMRFGAGTRLTVKPGGGGSGGGGSGGGGSGGGGSGGGGSGVIQSPRHLVTEMGQEVTLRCKPISGHNSLFWYRETPMQGLELLIYFNNNEPIDDSGMPEDRFSAKMPNASFSTLKIQPSEPRDSAVYFCASSPGSTDTQYFGPGTRLTVL
Turning to B1, the yeast cells stained positive in test [1] is 3.3% and 2.5%. Further, in test [2], the % cells, upper left quadrant (monomer-, SimPep tetramers+) came out at 3% and the % cells, upper right quadrant (monomer+, SimPep tetramers+) was determined as 0.8%.
